The target of one test is T1, GIPR Y73H (human) (UniProt P48546).
T1 sequence: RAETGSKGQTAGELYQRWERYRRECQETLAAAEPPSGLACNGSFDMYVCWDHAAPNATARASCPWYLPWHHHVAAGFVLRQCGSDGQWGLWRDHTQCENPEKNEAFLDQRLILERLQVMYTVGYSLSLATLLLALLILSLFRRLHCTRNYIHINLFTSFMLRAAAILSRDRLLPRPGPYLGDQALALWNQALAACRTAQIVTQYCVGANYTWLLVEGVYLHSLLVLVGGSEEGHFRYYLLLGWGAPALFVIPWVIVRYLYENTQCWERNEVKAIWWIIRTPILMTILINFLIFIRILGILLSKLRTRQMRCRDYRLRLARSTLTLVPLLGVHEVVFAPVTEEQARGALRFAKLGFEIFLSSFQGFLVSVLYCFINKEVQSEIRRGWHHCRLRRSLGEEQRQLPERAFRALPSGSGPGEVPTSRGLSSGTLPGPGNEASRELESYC

Another test addresses T2, GIPR E354Q (human) (UniProt P48546).
T2 sequence: T1 sequence with H52Y, E333Q

A further test addresses GIPR L13F (human) (UniProt P48546).
In another test the target is T3, GIPR E291K (human) (UniProt P48546).
T3 sequence: T1 sequence with H52Y, E270K

For the next test, the target named is T4, GIPR T25R (human) (UniProt P48546).
T4 sequence: T1 sequence with T4R, H52Y

The next test has as its target T5, GIPR P195R (human) (UniProt P48546).
T5 sequence: T1 sequence with H52Y, P174R

A further test concerns the target T6, GIPR S382T (human) (UniProt P48546).
T6 sequence: T1 sequence with H52Y, S361T

Residue numbers refer to the chain shown, from its start.

In the case of “β-arrestin 2 (Rluc8-Arrestin-3-Sp1) (from UniProt P32121 1-409) (natural protein)”, the β-arrestin 2 recruitment (BRET) on stimulation with GIP(1-42): logEC50 (Arrestin) (log M (inferred)) with GIPR Y73H (human) was -9.11; with GIPR E354Q (human) it was -8.52; with GIPR L13F (human), -8.75; in the test with GIPR E291K (human) it was -8.48; in the test with GIPR T25R (human), -9.3; in the test with GIPR P195R (human) it was -9.04. In the test with GIPR S382T (human), this substance yielded a β-arrestin 2 recruitment (BRET) on stimulation with GIP(1-42): logEC50 (Arrestin) (log M (inferred)) of -9.39.

The values are drawn from paper PMC11272584 (Nature Metabolism, 2024).
